# Positions count from the first letter of the chain named.
# B1: Variant 2 (scFv, V domains shown)
# VH: EVQLVESGGGLVQPGGSLRLSCAASGFTFSSYTMSWVRQAPGKGLEWVSYISHGGGDTYYADSVKGRFTISRDNSKNTLYLQMNSLRAEDTAVYYCARHSGYERGYYYVMDYWGQGTLVTVSS
# VL: DIVMTQSPDSLAVSLGERATINCKASESVDYYGFSFLNWFQQKPGQPPKLLIYAASNRESGVPDRFSGSGSGTDFTLTISSLQAEDVAVYYCQQSKEVPWTFGQGTKLEIKR
# B2: Variant 7 (scFv, V domains shown)
# VH: B1 VH with Q3K, V5L, A61P, Q115K, L118T
# VL: DIVMTQSPDSLAVSLGERATINCKSSESVDYYGFSFLNWFQQKPGQPPKLLIYAASNRESGVPDRFSGSGSGTDFTLTISSLQAEDVAVYYCQQSKEVPWTFGQGTKLEIK
# B3: Variant 5 (scFv, V domains shown)
# VH: B1 VH with A61P
# VL: B1 VL
# B4: Variant 3 (scFv, V domains shown)
# VH: B1 VH
# VL: B1 VL with V3Q, M4L, A12S, E59Q, Y91F
# B5: Variant 1 (scFv, V domains shown)
# VH: B1 VH
# VL: B1 VL with A25S
# B6: Variant 6 (scFv, V domains shown)
# VH: B1 VH with A61P
# VL: B1 VL with V3Q, M4L, A12S, E59Q, Y91F
# B7: Variant 4 (scFv, V domains shown)
# VH: B1 VH with A61P
# VL: B1 VL with A25S
# B8: Variant 8 (scFv, V domains shown)
# VH: B1 VH with Q3K, V5L, A61P, Q115K, L118T
# VL: B2 VL with S25A
# Target: T1, - (UniProt Q15116 25-167)
# T1 sequence (Q15116 25-167): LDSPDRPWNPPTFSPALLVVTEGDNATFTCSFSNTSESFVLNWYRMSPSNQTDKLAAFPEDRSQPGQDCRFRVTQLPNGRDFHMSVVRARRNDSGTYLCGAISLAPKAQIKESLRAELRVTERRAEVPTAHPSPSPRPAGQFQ
# Experiment: SPR (Biacore T200); range printed
row,Kd [nM],Binder
1,2,B1

# Target: T1, -
# Experiment: SPR (Biacore T200)
row,Kd [nM],Binder
1,0.67,B2
2,2.3,B3
3,5.6,B4
4,5.8,B5
5,5.8,B6
6,3.6,B7
7,2.6,B8
